B1: Protein OPY2 (Saccharomyces cerevisiae), Q06810 (parent)
chain: MSSSSKASASSSLSSTATSSTSATRGSDGCVVCDSTASCPVCASGEYCVMTSLTCDKCPSTYCAKQSDSQLSSLSSSSSSSSSSNSNEKTSLIVGFTVGIVGGAMLIALVALYFINKRYWKPKRQKNKALKLEEASQSYGNEEEYFDDEDDDDEDDEDDGGMRKDESHTLFNTSLVPPTLNVPGNRSSASTTRTRASNILPIAYIPGVTSGLSTDKLQSKLRSSSKRQNAAGDIRSHITLGSSILDGLDDEDDEHNQVLNKDADDNLITAIRAKPKLVQIAEEESDKEIQDLDVIEEQTEADDLSHMAKSEASHGNNDEDDDEEGSFILDLEIPESIRESTQGSRTESPFEDKFEIHDER
partner: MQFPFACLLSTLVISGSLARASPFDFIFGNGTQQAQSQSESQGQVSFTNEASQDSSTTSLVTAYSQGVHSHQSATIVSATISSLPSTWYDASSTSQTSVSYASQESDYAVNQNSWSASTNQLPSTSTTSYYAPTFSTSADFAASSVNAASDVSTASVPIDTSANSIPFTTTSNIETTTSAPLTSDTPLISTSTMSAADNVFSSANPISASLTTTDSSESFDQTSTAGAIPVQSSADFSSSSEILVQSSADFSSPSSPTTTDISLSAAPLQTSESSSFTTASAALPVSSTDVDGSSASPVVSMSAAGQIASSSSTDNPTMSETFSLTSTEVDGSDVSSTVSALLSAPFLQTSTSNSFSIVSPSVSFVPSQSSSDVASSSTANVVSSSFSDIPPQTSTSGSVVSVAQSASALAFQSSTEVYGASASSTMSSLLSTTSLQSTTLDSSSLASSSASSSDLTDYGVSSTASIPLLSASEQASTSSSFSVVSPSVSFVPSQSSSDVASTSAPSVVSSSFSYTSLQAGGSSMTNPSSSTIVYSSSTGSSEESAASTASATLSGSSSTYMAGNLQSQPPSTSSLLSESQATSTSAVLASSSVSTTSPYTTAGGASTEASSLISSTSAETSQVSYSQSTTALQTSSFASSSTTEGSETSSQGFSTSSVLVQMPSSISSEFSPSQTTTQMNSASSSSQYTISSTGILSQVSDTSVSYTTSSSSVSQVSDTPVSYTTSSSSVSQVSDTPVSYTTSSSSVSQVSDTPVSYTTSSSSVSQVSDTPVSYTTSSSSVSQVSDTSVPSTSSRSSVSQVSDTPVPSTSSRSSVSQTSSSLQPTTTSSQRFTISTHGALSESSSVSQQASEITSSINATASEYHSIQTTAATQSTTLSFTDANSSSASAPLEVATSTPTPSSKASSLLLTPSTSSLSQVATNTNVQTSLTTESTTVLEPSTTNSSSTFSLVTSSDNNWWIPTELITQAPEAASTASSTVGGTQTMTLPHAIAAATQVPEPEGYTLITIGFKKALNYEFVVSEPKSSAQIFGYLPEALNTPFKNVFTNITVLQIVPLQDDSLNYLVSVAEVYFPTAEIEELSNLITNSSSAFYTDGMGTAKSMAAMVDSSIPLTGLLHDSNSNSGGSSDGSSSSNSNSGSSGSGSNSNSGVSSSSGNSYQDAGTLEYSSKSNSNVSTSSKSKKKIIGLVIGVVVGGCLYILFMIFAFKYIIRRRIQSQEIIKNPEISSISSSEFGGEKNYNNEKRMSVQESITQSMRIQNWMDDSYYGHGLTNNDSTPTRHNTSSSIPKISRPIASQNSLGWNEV

Variants of: B1
Conditions: with msb2_yeast MSB2, P32334

Variant	effect of a mutation on the interaction
C33A;C58A	decreasing interaction strength
C30A;C42A	disrupting interaction strength
C30A;C55A	decreasing interaction strength
C33A;C39A	disrupting interaction strength
